From IntAct's records for PubMed 19359471

B1: Anterior gradient protein 2 homolog (Homo sapiens), O95994 (parent)
chain: MEKIPVSAFLLLVALSYTLARDTTVKPGAKKDTKDSRPKLPQTLSRGWGDQLIWTQTYEEALYKSKTSNKPLMIIHHLDECPHSQALKKVFAENKEIQKLAEQFVLLNLVYETTDKHLSPDGQYVPRIMFVDPSLTVRADITGRYSNRLYAYEPADTALLLDNMKKALKLLKTEL

Variants of: B1
Settings: with muc2_human MUC2, Q02817

Variant | effect of a mutation on the interaction
MEKIPVSAFLLLVALSYTLARDTTVKPGAKKDTKDSRPKLPQTLSRGWGDQLIWTQTYEEALYKSKTSNKPLMIIHHLDESPHSQALKKVFAENKEIQKLAEQFVLLNLVYETTDKHLSPDGQYVPRIMFVDPSLTVRADITGRYSNRLYAYEPADTALLLDNMKKALKLLKTEL [C81S] | disrupting interaction
